Laboratory results from patent US20230049152A1 (Genentech, published 2023).

T1: human CCR4 (human, UniProt P51679 1-360)
T1 construct: whole, on cells; transiently expressed on HEK293 cells
T1 sequence (looked up): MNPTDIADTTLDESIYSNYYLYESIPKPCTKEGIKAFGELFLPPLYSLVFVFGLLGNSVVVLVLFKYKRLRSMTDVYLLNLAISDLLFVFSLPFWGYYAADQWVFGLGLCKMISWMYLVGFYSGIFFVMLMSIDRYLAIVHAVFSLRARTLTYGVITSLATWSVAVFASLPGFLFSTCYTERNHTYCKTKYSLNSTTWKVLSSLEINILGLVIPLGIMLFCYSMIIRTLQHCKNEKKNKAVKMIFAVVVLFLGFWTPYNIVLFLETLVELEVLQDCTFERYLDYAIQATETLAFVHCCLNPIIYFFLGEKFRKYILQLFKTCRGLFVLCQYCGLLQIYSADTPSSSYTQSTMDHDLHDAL

T2: human ACKR4 (human, UniProt Q9NPB9 1-350)
T2 construct: whole, on cells; transiently expressed on HEK293 cells
T2 sequence (looked up): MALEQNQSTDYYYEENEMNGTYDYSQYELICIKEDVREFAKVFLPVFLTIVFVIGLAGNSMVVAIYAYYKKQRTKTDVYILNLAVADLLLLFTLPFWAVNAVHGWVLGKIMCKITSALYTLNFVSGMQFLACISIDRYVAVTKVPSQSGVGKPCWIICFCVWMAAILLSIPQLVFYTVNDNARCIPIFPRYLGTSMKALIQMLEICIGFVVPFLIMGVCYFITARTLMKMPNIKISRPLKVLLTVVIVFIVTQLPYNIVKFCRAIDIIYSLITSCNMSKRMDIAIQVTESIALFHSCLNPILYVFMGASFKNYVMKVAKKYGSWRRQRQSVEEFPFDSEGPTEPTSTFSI


Assays:
human CCR2 = biological target: T3, human CCR2 (human, UniProt P41597 1-374); test: flow cytometry, HEK293 with N-term FLAG-tagged human CCR2
T3 construct: whole, on cells; transiently expressed on HEK293 cells
T3 sequence (P41597 whole entry): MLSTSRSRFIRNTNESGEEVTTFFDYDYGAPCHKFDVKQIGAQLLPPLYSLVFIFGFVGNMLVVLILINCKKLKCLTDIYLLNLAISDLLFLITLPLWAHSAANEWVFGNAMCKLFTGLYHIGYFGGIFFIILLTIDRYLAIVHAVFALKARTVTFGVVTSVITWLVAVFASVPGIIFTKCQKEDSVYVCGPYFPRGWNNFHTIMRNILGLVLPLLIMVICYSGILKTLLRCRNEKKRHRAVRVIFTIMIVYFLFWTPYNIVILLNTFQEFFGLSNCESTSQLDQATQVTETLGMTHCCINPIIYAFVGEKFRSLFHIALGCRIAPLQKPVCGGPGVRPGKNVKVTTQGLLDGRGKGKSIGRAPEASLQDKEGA
Description: (§1) FIGS. 4A-4F depicts the binding data of hu.Ab3.H1L1 (FIG. 4A), hu.Ab4.H1L1 (FIG. 4B), and hu.Ab5.H1L1 (FIG. 4C), as well as the commercial anti-CCR8 mAbs murine anti-human CCR8 mAb 433H (BD Biosciences) (FIG. 4D), and murine anti-human CCR8 mAb L263G8 (Biolegend) (FIG. 4E), and the humanized anti-human Yoshida anti-CCR8 mAb (FIG. 4F), to HEK293 cells that were transiently transfected with N-term FLAG-tagged plasmids encoding for human GPCRs (CCR2, CCR3, CCR4, CCR5, CCR8, CXCR4, ACKR2, and ACKR4), hCCR8 constructs, or with a mock construct using transIT X2 (reagent:DNA=3:1).
(§2) To confirm the selectivity to CCR8, the binding of hu.Ab3.H1L1, hu.Ab4.H1L1, and hu.Ab5.H1L1, as well as the Yoshida humanized anti-human CCR8, murine anti-human CCR8 mAb L263G8 (Biolegend, Commercial Ab) and murine anti-human CCR8 mAb 433H (BD Biosciences, Commercial Ab), were characterized by flow cytometry on HEK293 cells that were transiently transfected with plasmids encoding for FLAG-tagged other related human GPCRs (CCR2-5, CXCR4, ACKR2, and ACKR4). Cell surface expression of each GPCR was confirmed by staining with an anti-FLAG antibody control. In particular, HEK293 cells were transfected with N-term FLAG-tagged human CCR2, CCR3, CCR4, CCR5, CXCR4, ACKR2, ACKR4, hCCR8 constructs, or with a Mock construct using transIT X2 (reagent:DNA=3:1) for 24 hours, and surface stained with various anti-hCCR8 monoclonal antibodies at 5 ug/ml, or rabbit anti-Flag pAb (Sigma) followed by AF647-anti-hIgG or AF647-anti-RbIgG respectively. Antibodies hu.Ab4.H1L1, and hu.Ab5.H1L1, only stained the hCCR8-containing cells, confirming their specificity to hCCR8. […] Thus, the CCR8 selective hu.Ab4.H1L1 and hu.Ab5.H1L1 antibodies with the best ADCC activities were carried forward.

human CCR4 = biological target: T1, human CCR4; test: flow cytometry, HEK293 with N-term FLAG-tagged human CCR4
Description: as §1
(§3) To confirm the selectivity to CCR8, the binding of hu.Ab3.H1L1, hu.Ab4.H1L1, and hu.Ab5.H1L1, as well as the Yoshida humanized anti-human CCR8, murine anti-human CCR8 mAb L263G8 (Biolegend, Commercial Ab) and murine anti-human CCR8 mAb 433H (BD Biosciences, Commercial Ab), were characterized by flow cytometry on HEK293 cells that were transiently transfected with plasmids encoding for FLAG-tagged other related human GPCRs (CCR2-5, CXCR4, ACKR2, and ACKR4). Cell surface expression of each GPCR was confirmed by staining with an anti-FLAG antibody control. […]

human CCR5 = biological target: T4, human CCR5 (human, UniProt P51681 1-352); test: flow cytometry, HEK293 with N-term FLAG-tagged human CCR5
T4 construct: whole, on cells; transiently expressed on HEK293 cells
T4 sequence (P51681 whole entry): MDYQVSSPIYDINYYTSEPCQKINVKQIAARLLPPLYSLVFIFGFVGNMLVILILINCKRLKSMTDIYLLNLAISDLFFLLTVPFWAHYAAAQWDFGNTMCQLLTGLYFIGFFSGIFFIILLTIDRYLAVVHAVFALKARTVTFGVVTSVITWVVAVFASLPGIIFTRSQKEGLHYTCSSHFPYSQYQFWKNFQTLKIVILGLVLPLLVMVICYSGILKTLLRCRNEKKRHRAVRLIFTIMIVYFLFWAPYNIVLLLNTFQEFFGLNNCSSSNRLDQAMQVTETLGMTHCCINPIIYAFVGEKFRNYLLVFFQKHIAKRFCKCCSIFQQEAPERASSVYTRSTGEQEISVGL
Description: as §1, §3

human ACKR4 = biological target: T2, human ACKR4; test: flow cytometry, HEK293 with N-term FLAG-tagged human ACKR4
Description: as §1, §3

human CXCR4 = biological target: T5, human CXCR4 (human, UniProt P61073 1-352); test: flow cytometry, HEK293 with N-term FLAG-tagged human CXCR4, procedure of FIG. 4
T5 construct: whole, on cells; transiently expressed on HEK293 cells
T5 sequence (P61073 whole entry): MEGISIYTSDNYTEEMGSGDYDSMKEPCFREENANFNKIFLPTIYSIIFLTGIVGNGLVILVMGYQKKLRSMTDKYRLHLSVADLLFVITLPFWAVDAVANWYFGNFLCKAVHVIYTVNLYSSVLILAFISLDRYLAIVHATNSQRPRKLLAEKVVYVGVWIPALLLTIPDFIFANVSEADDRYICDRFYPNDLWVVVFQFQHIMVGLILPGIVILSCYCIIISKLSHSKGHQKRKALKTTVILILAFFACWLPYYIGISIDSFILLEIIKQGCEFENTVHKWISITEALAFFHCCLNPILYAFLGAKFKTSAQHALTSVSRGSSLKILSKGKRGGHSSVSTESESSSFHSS
Description: as §2
To reconfirm that the Ab4 and Ab5 variants remained selective to CCR8 compared to the corresponding HIL1 variants, binding was analyzed by flow cytometry following the procedure as described for FIG. 4A and FIG. 4B. […]

cyno CCR8 = biological target: T6, cyno CCR8 (cynomolgus monkey, UniProt O97665 1-356 (rhesus entry)); test: radioligand competition on CHO cells stably expressing cyno CCR8: fixed 125I-anti-CCR8 against serially diluted unlabelled antibody
T6 construct: also called cynomolgus monkey CCR8
T6 sequence (O97665 other isoform, or with tags, fused parts or gaps): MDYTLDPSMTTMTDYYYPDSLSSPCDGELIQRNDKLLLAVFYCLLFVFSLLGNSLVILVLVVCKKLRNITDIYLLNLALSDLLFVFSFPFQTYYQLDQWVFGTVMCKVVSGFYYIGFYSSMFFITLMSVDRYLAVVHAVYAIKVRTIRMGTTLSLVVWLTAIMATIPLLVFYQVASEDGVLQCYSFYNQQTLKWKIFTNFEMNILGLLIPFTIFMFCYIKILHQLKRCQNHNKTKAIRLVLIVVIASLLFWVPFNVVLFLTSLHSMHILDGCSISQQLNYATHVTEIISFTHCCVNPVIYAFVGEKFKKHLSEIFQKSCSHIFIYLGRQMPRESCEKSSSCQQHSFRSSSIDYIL
Procedure: Cell-based affinity measurements were performed using radiolabeled IgGs and CHO cell lines stably expressing human or cyno CCR8 for hu.Ab5.H13L1 and hu.Ab4.H12L3.
Briefly, stable CHO cells expressing human or cyno CCR8 were seeded in cold binding buffer (Opti-MEM+2% FBS+50 mM HEPES, pH 7.2+0.1% Sodium Azide) at 50,000 cells per well. A fixed concentration of ¹²⁵I-anti-CCR8 radiolabeled using the NEX244 Iodogen method (Perkin Elmer) was mixed with serially diluted anti-CCR8 antibodies starting at 20 nM or 50 nM. The antibody mixture was added to the cells and incubated at room temperature for 12 hours under gentle agitation. The cells and antibodies were then transferred to Millipore multiscreen filter plates. The filter plates were washed 4 times with 250 μL of cold binding buffer and dried for at least 30 minutes and the filters were punched into 5 mL polystyrene tubes. The radioactivity was measured using a Perkin Elmer Wallac Wizard 2470 Gamma Counter set at 1 count per minute with 0.8 counting efficiency. The data were fitted using the heterologous one site-fit Ki competitive binding model in GraphPad Prism.

| Binder | binding result (human CCR2) | binding result (human CCR4) | binding result (human CCR5) | binding result (human ACKR4) | binding result (human CXCR4) | IC50 (read off the curve) (cyno CCR8) [nM] |
| --- | --- | --- | --- | --- | --- | --- |
| hu.Ab4.H1L1 (antibody, human IgG1, kappa, also called hu.Ab4.H1Ll) heavy: not shown light: DYQMTQSPSSLSASVGDRVTITCQASQSISSYLSWYQQKPGKRPKLLIYKASTLASGVPSRFSGSGSGTDFTLTISSLQPEDFATYYCQQGYTSSNIDNIFGGGTKVEIKRTVAAPSVFIFPPSDEQLKSGTASVVCLLNNFYPREAKVQWKVDNALQSGNSQESVTEQDSKDSTYSLSSTLTLSKADYEKHKVYACEVTHQGLSSPVTKSFNRGEC | no binding (tested: 5 ug/ml) | no binding (tested: 5 ug/ml) | no binding (tested: 5 ug/ml) | no binding (tested: 5 ug/ml) |  |  |
| hu.Ab4.H12L3 (antibody, human IgG1, kappa, fucosylated human IgG1; also called huCCR8-Ab4.H12L3.hIgG1; Ab4 variant) heavy: not shown light: DYQMTQSPSSLSASVGDRVTITCQASQSISSYLSWYQQKPGKAPKLLIYKASTLASGVPSRFSGSGSGTDFTLTISSLQPEDFATYYCQQGYTSSNIDNIFGGGTKVEIKRTVAAPSVFIFPPSDEQLKSGTASVVCLLNNFYPREAKVQWKVDNALQSGNSQESVTEQDSKDSTYSLSSTLTLSKADYEKHKVYACEVTHQGLSSPVTKSFNRGEC |  |  |  |  | no binding (tested: 5 ug/ml) | ~0.1 |
| hu.Ab5.H1L1 (antibody, human IgG1, kappa) heavy: not shown light: DIQVTQSPSSLSASVGDRVTITCQASENIANALAWYQQKPGKPPKFLIYGASNLASGVPSRFSGSGSGTDFTFTISSLQPEDIATYYCQQAYYGNSFVEGTFGGGTKVEIKRTVAAPSVFIFPPSDEQLKSGTASVVCLLNNFYPREAKVQWKVDNALQSGNSQESVTEQDSKDSTYSLSSTLTLSKADYEKHKVYACEVTHQGLSSPVTKSFNRGEC | no binding (tested: 5 ug/ml) | no binding (tested: 5 ug/ml) | no binding (tested: 5 ug/ml) | no binding (tested: 5 ug/ml) |  |  |
| hu.Ab5.H13L1 (antibody, human IgG1, kappa, fucosylated human IgG1; also called Ab5 variant) heavy: not shown light: DIQVTQSPSSLSASVGDRVTITCQASENIANALAWYQQKPGKPPKFLIYGASNLASGVPSRFSGSGSGTDFTFTISSLQPEDIATYYCQQAYYGNSFVEGTFGGGTKVEIKRTVAAPSVFIFPPSDEQLKSGTASVVCLLNNFYPREAKVQWKVDNALQSGNSQESVTEQDSKDSTYSLSSTLTLSKADYEKHKVYACEVTHQGLSSPVTKSFNRGEC |  |  |  |  | no binding (tested: 5 ug/ml) | ~0.05 |
